{
  "source": "ChEMBL document CHEMBL5579804",
  "about": "“Synthesis and kinetic evaluation of phosphomimetic inhibitors targeting type B ribose-5-phosphate isomerase from Mycobacterium tuberculosis” (Bioorg Med Chem Lett, 2024)",
  "proteins": {"B1": {"name": "Ribose-5-phosphate isomerase B (Mycobacterium tuberculosis), P9WKD7 (protein)", "chain": "MSGMRVYLGADHAGYELKQRIIEHLKQTGHEPIDCGALRYDADDDYPAFCIAAATRTVADPGSLGIVLGGSGNGEQIAANKVPGARCALAWSVQTAALAREHNNAQLIGIGGRMHTVAEALAIVDAFVTTPWSKAQRHQRRIDILAEYERTHEAPPVPGAPA"}, "B2": {"name": "ribose-5-phosphate isomerase (Spinacia oleracea), Q8RU73 (protein)", "chain": "MASAAFSLLPSTSSTTFNRHATTKLLNLKFLHNHRNKPFFTTTIKSLSSPSPTPVLTQDDLKKLAAEKAVDSVKSGMVLGLGTGSTAAFAVSRIGELLSAGKLTNIVGIPTSKRTAEQAASLGIPLSVLDDHPRIDLAIDGADEVDPDLNLVKGRGGALLREKMVEAASDKFIVVVDDTKLVDGLGGSRLAMPVEVVQFCWKYNLKRLQEIFKELGCEAKLRMEGDSSPYVTDNSNYIVDLYFPTSIKDAEAAGREISALEGVVEHGLFLGMASEVIIAGKTGVSVKTK"}, "B3": {"name": "Ribose-5-phosphate isomerase B (Escherichia coli (strain K12)), P37351 (protein)", "chain": "MKKIAFGCDHVGFILKHEIVAHLVERGVEVIDKGTWSSERTDYPHYASQVALAVAGGEVDGGILICGTGVGISIAANKFAGIRAVVCSEPYSAQLSRQHNDTNVLAFGSRVVGLELAKMIVDAWLGAQYEGGRHQQRVEAITAIEQRRN"}},
  "key": {"[1]": {"compound": "O=P(O)(O)OC[C@H]1O[C@@H](O)[C@H](O)[C@@H]1O", "test": "Competitive inhibition of Mycobacterium tuberculosis RPIB assessed as Km using D-ribose-5-phosphate as substrate by ultraviolet absorbance based spectrophotometric analysis"}, "[2]": {"compound": "O=P(O)(O)OC[C@H]1O[C@@H](O)[C@H](O)[C@@H]1O", "test": "Competitive inhibition of Mycobacterium tuberculosis RPIB assessed as Km using D-ribose-5-phosphate as substrate"}, "[3]": {"compound": "O=P(O)(O)OC[C@H]1O[C@@H](O)[C@H](O)[C@@H]1O", "test": "Competitive inhibition of Mycobacterium tuberculosis RPIB assessed as Km using D-ribose-5-phosphate as substrate by spectrophotometric analysis"}, "[4]": {"compound": "O=P(O)(O)OC[C@H]1O[C@@H](O)[C@H](O)[C@@H]1O", "test": "Competitive inhibition of Mycobacterium tuberculosis H37Rv RPIB extracted from Escherichia coli BL21 assessed as Km using D-ribose-5-phosphate as substrate incubated for 10 mins by ultraviolet absorbance based spectrophotometric analysis"}, "[5]": {"compound": "O=P(O)(O)OC[C@H]1O[C@@H](O)[C@H](O)[C@@H]1O", "test": "Competitive inhibition of Spinacia oleracea RPIA assessed as Km using D-ribose-5-phosphate as substrate"}, "[6]": {"compound": "O=P(O)(O)OC[C@H]1O[C@@H](O)[C@H](O)[C@@H]1O", "test": "Competitive inhibition of Spinacia oleracea RPIA assessed as Km using D-ribose-5-phosphate as substrate by ultraviolet absorbance based spectrophotometric analysis"}, "[7]": {"compound": "O=P(O)(O)OC[C@H]1O[C@@H](O)[C@H](O)[C@@H]1O", "test": "Competitive inhibition of Spinacia oleracea RPIA assessed as Km using D-ribose-5-phosphate as substrate by Michaelis-Menten kinetics analysis"}, "[8]": {"compound": "O=P(O)(O)OC[C@H]1O[C@@H](O)[C@H](O)[C@@H]1O", "test": "Competitive inhibition of Escherichia coli RPIB assessed as Km using D-ribose-5-phosphate as substrate"}, "[9]": {"compound": "O=P(O)(O)OC[C@H]1O[C@@H](O)[C@H](O)[C@@H]1O", "test": "Competitive inhibition of Escherichia coli RPIB assessed as Km using D-ribose-5-phosphate as substrate by spectrophotometric analysis"}, "[10]": {"compound": "O=P(O)(O)OC[C@H]1O[C@@H](O)[C@H](O)[C@@H]1O", "test": "Competitive inhibition of Escherichia coli RPIB assessed as Km using D-ribose-5-phosphate as substrate by ultraviolet absorbance based spectrophotometric analysis"}},
  "data": [
    {"protein": "B1", "values": [
      {"measurement": "Km", "setting": "[1]", "value": 1000, "unit": "µM"},
      {"measurement": "Km", "setting": "[2]", "value": 2100, "unit": "µM"},
      {"measurement": "Km", "setting": "[3]", "value": 3100, "unit": "µM"},
      {"measurement": "Km", "setting": "[4]", "value": 3700, "unit": "µM"}
    ]},
    {"protein": "B2", "values": [
      {"measurement": "Km", "setting": "[5]", "value": 3000, "unit": "µM"},
      {"measurement": "Km", "setting": "[6]", "value": 3300, "unit": "µM"},
      {"measurement": "Km", "setting": "[7]", "value": 7500, "unit": "µM"}
    ]},
    {"protein": "B3", "values": [
      {"measurement": "Km", "setting": "[8]", "value": 1600, "unit": "µM"},
      {"measurement": "Km", "setting": "[9]", "value": 1500, "unit": "µM"},
      {"measurement": "Km", "setting": "[10]", "value": 1100, "unit": "µM"}
    ]}
  ]
}
